Holding throughout (test): ITC
Holding throughout (conditions): both partners purified

Experiment [1] addresses T1, human hisTRIM7-PRYSPRY (human, UniProt Q9C029 342-511).
T1 construct: vector pOPTH; also called hTRIM7-PRYSPRY; hTRIM7

Experiment [2] concerns the target hisMBP-TRIM7-CC-PRYSPRY (human, UniProt Q9C029 165-511).
Experiment [3] deals with T2, mouse TRIM7-PRYSPRY (mouse, UniProt Q923T7 342-510).
T2 construct: vector pOPTH; also called mTRIM7; mTrim7-PRYPSRY

In experiment [1], AAAAALQ displayed an equilibrium dissociation constant (Kd) of 8 µM. This lies in the single-digit micromolar range.

B1: hexahistidine-tagged full-length human GYG1, GN1 isoform (natural protein)
chain: MTDQAFVTLTTNDAYAKGALVLGSSLKQHRTTRRLVVLATPQVSDSMRKVLETVFDEVIMVDVLDSGDSAHLTLMKRPELGVTLTKLHCWSLTQYSKCVFMDADTLVLANIDDLFDREELSAAPDPGWPDCFNSGVFVYQPSVETYNQLLHLASEQGSFDGGDQGILNTFFSSWATTDIRKHLPFIYNLSSISIYSYLPAFKVFGASAKVVHFLGRVKPWNYTYDPKTKSVKSEAHDPNMTHPEFLILWWNIFTTNVLPLLQQFGLVKDTCSYVNVEDVSGAISHLSLGEIPAMAQPFVSSEERKERWEQGQADYMGADSFDNIKRKLDTYLQ
notes: also called hsGYG1-GN1; hGYG1-GN1
Regarding B1, the “stoichiometry N” value in experiment [2] turned out to be 1.

B2: mouse glycogenin-1, full length (natural protein)
chain: MTDQAFVTLTTNDAYAKGALVLGSSLKQHRTTRRMVVLTSPQVSDSMRKVLETVFDDVIMVDVLDSGDSAHLTLMKRPELGITLTKLHCWSLTQYSKCVFMDADTLVLSNIDDLFEREELSAAPDPGWPDCFNSGVFVYQPSIETYNQLLHLASEQGSFDGGDQGLLNTYFSGWATTDITKHLPFVYNLSSISIYSYLPAFKAFGKNAKVVHFLGRTKPWNYTYNPQTKSVNCDSQDPTVSHPEFLNLWWDTFTTNVLPLLQHHGLVKDASSYLMMEHVSGALSDLSFGEAPAAPQPSMSSEERKERWEQGQADYMGADSFDNIKRKLDTYLQ
notes: also called mGYG1; mGYG
As for B2, the binding result in experiment [3] is recorded as “binds”.

B3: rabbit glycogenin-1, full length (natural protein)
chain: MTDQAFVTLTTNDAYAKGALVLGSSLKQHRTSRRLAVLTTPQVSDTMRKALEIVFDEVITVDILDSGDSAHLTLMKRPELGVTLTKLHCWSLTQYSKCVFMDADTLVLANIDDLFEREELSAAPDPGWPDCFNSGVFVYQPSVETYNQLLHVASEQGSFDGGDQGLLNTFFNSWATTDIRKHLPFIYNLSSISIYSYLPAFKAFGANAKVVHFLGQTKPWNYTYDTKTKSVRSEGHDPTMTHPQFLNVWWDIFTTSVVPLLQQFGLVQDTCSYQHVEDVSGAVSHLSLGETPATTQPFVSSEERKERWEQGQADYMGADSFDNIKKKLDTYLQ
notes: vector pOPTH; also called rbGYG1; full-length rbGYG1
Take B3: the binding result in experiment [3] was “binds”.

For the origin of these results see article PMC9394474 (Viruses, 2022).
